Measurements as given in paper PMC8184503 (iScience, 2021).
Primed or numbered codes have the meaning given here. Where no end group is shown, it is not given here. FITC′ = fluorescein isothiocyanate

Target: T1, His-tagged β-cat (ARM domain, aa 134-668) (UniProt P35222 134-668)
T1 sequence (looked up): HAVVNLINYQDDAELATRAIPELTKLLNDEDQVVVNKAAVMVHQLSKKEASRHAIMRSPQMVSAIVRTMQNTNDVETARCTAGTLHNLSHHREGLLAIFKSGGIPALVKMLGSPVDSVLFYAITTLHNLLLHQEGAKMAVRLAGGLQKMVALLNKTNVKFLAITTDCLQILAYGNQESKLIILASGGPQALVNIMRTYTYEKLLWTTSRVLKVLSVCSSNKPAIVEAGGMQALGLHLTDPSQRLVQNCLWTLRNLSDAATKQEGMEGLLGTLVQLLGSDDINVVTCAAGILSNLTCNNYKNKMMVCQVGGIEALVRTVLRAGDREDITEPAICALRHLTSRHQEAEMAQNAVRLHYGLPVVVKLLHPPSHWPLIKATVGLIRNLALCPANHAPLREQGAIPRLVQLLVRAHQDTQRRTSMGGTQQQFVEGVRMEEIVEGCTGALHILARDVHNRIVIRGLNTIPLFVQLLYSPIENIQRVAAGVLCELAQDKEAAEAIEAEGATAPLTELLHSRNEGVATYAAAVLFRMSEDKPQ
Experiment: SPR

GGGDDLGANDELISFKDEGEQEEKSSENSSAERDLADVKSSLVNE-{FITC′} [C-terminal FITC-labeled TCF4 peptide (aa 7-51)] was tested, and the IC50 was 29 nM.

B1: GST-tagged TCF4 N-terminal domain (aa 1-55) (domain or fragment, UniProt Q9NQB0 1-55, looked up)
chain: MPQLNGGGGDDLGANDELISFKDEGEQEEKSSENSSAERDLADVKSSLVNESETN
B1: binds.
